B1: medium-chain acyl-CoA dehydrogenase (MCAD) wild-type (enzyme, human, UniProt P11310-1 26-421, looked up)
chain: KANRQREPGLGFSFEFTEQQKEFQATARKFAREEIIPVAAEYDKTGEYPVPLIRRAWELGLMNTHIPENCGGLGLGTFDACLISEELAYGCTGVQTAIEGNSLGQMPIIIAGNDQQKKKYLGRMTEEPLMCAYCVTEPGAGSDVAGIKTKAEKKGDEYIINGQKMWITNGGKANWYFLLARSDPDPKAPANKAFTGFIVEADTPGIQIGRKELNMGQRCSDTRGIVFEDVKVPKENVLIGDGAGFKVAMGAFDKTRPVVAAGAVGLAQRALDEATKYALERKTFGKLLVEHQAISFMLAEMAMKVELARMSYQRAAWEVDSGRRNTYYASIAKAFAGDIANQLATDAVQILGGNGFNTEYPVEKLMRDAKIYQIYEGTSQIQRLIVAREHIDKYKN
notes: medium-chain acyl-CoA dehydrogenase (MCAD), human, cDNA of the ACADM gene cloned into pMALc2X; also called WT; wild-type MCAD; source: E. coli BL21-CodonPlus, purified (MBPTrap, SEC, Factor Xa cleavage, SEC); not shown: MBP, N-terminal, cleaved
B2: MCAD p.Arg206Cys (enzyme, human, UniProt P11310-1 26-421, looked up)
chain: KANRQREPGLGFSFEFTEQQKEFQATARKFAREEIIPVAAEYDKTGEYPVPLIRRAWELGLMNTHIPENCGGLGLGTFDACLISEELAYGCTGVQTAIEGNSLGQMPIIIAGNDQQKKKYLGRMTEEPLMCAYCVTEPGAGSDVAGIKTKAEKKGDEYIINGQKMWITNGGKANWYFLLACSDPDPKAPANKAFTGFIVEADTPGIQIGRKELNMGQRCSDTRGIVFEDVKVPKENVLIGDGAGFKVAMGAFDKTRPVVAAGAVGLAQRALDEATKYALERKTFGKLLVEHQAISFMLAEMAMKVELARMSYQRAAWEVDSGRRNTYYASIAKAFAGDIANQLATDAVQILGGNGFNTEYPVEKLMRDAKIYQIYEGTSQIQRLIVAREHIDKYKN
notes: medium-chain acyl-CoA dehydrogenase (MCAD), human, ACADM cDNA in pMALc2X with a missense mutation found in newborn screening; number counts on the precursor (initiator methionine +1); also called R206C; p.Arg181Cys; source: E. coli DH5α co-transformed with pGroESL, purified (MBPTrap, SEC, Factor Xa cleavage, SEC); not shown: MBP, N-terminal, cleaved
B3: MCAD p.Ala52Val (enzyme, human, UniProt P11310-1 26-421, looked up)
chain: KANRQREPGLGFSFEFTEQQKEFQATVRKFAREEIIPVAAEYDKTGEYPVPLIRRAWELGLMNTHIPENCGGLGLGTFDACLISEELAYGCTGVQTAIEGNSLGQMPIIIAGNDQQKKKYLGRMTEEPLMCAYCVTEPGAGSDVAGIKTKAEKKGDEYIINGQKMWITNGGKANWYFLLARSDPDPKAPANKAFTGFIVEADTPGIQIGRKELNMGQRCSDTRGIVFEDVKVPKENVLIGDGAGFKVAMGAFDKTRPVVAAGAVGLAQRALDEATKYALERKTFGKLLVEHQAISFMLAEMAMKVELARMSYQRAAWEVDSGRRNTYYASIAKAFAGDIANQLATDAVQILGGNGFNTEYPVEKLMRDAKIYQIYEGTSQIQRLIVAREHIDKYKN
notes: medium-chain acyl-CoA dehydrogenase (MCAD), human, ACADM cDNA in pMALc2X with a missense mutation found in newborn screening; number counts on the precursor (initiator methionine +1); also called p.Ala27Val; A27V; source: E. coli DH5α co-transformed with pGroESL, purified (MBPTrap, SEC, Factor Xa cleavage, SEC); not shown: MBP, N-terminal, cleaved
B4: MCAD p.Tyr158His (enzyme, human, UniProt P11310-1 26-421, looked up)
chain: KANRQREPGLGFSFEFTEQQKEFQATARKFAREEIIPVAAEYDKTGEYPVPLIRRAWELGLMNTHIPENCGGLGLGTFDACLISEELAYGCTGVQTAIEGNSLGQMPIIIAGNDQQKKKYLGRMTEEPLMCAHCVTEPGAGSDVAGIKTKAEKKGDEYIINGQKMWITNGGKANWYFLLARSDPDPKAPANKAFTGFIVEADTPGIQIGRKELNMGQRCSDTRGIVFEDVKVPKENVLIGDGAGFKVAMGAFDKTRPVVAAGAVGLAQRALDEATKYALERKTFGKLLVEHQAISFMLAEMAMKVELARMSYQRAAWEVDSGRRNTYYASIAKAFAGDIANQLATDAVQILGGNGFNTEYPVEKLMRDAKIYQIYEGTSQIQRLIVAREHIDKYKN
notes: medium-chain acyl-CoA dehydrogenase (MCAD), human, ACADM cDNA in pMALc2X with a missense mutation found in newborn screening; number counts on the precursor (initiator methionine +1); also called Y158H; p.Tyr133His; source: E. coli DH5α co-transformed with pGroESL, purified (MBPTrap, SEC, Factor Xa cleavage, SEC); not shown: MBP, N-terminal, cleaved
B5: MCAD p.Lys329Glu (enzyme, human, UniProt P11310-1 26-421, looked up)
chain: KANRQREPGLGFSFEFTEQQKEFQATARKFAREEIIPVAAEYDKTGEYPVPLIRRAWELGLMNTHIPENCGGLGLGTFDACLISEELAYGCTGVQTAIEGNSLGQMPIIIAGNDQQKKKYLGRMTEEPLMCAYCVTEPGAGSDVAGIKTKAEKKGDEYIINGQKMWITNGGKANWYFLLARSDPDPKAPANKAFTGFIVEADTPGIQIGRKELNMGQRCSDTRGIVFEDVKVPKENVLIGDGAGFKVAMGAFDKTRPVVAAGAVGLAQRALDEATKYALERKTFGKLLVEHQAISFMLAEMAMEVELARMSYQRAAWEVDSGRRNTYYASIAKAFAGDIANQLATDAVQILGGNGFNTEYPVEKLMRDAKIYQIYEGTSQIQRLIVAREHIDKYKN
notes: medium-chain acyl-CoA dehydrogenase (MCAD), human, ACADM cDNA in pMALc2X with a missense mutation found in patients; number counts on the precursor (initiator methionine +1); also called K329E; p.Lys304Glu; source: E. coli DH5α co-transformed with pGroESL, purified (MBPTrap, SEC, Factor Xa cleavage, SEC); not shown: MBP, N-terminal, cleaved
B6: MCAD p.Asp266Gly (enzyme, human, UniProt P11310-1 26-421, looked up)
chain: KANRQREPGLGFSFEFTEQQKEFQATARKFAREEIIPVAAEYDKTGEYPVPLIRRAWELGLMNTHIPENCGGLGLGTFDACLISEELAYGCTGVQTAIEGNSLGQMPIIIAGNDQQKKKYLGRMTEEPLMCAYCVTEPGAGSDVAGIKTKAEKKGDEYIINGQKMWITNGGKANWYFLLARSDPDPKAPANKAFTGFIVEADTPGIQIGRKELNMGQRCSDTRGIVFEDVKVPKENVLIGGGAGFKVAMGAFDKTRPVVAAGAVGLAQRALDEATKYALERKTFGKLLVEHQAISFMLAEMAMKVELARMSYQRAAWEVDSGRRNTYYASIAKAFAGDIANQLATDAVQILGGNGFNTEYPVEKLMRDAKIYQIYEGTSQIQRLIVAREHIDKYKN
notes: medium-chain acyl-CoA dehydrogenase (MCAD), human, ACADM cDNA in pMALc2X with a missense mutation found in newborn screening; number counts on the precursor (initiator methionine +1); also called D266G; p.Asp241Gly; source: E. coli DH5α co-transformed with pGroESL, purified (MBPTrap, SEC, Factor Xa cleavage, SEC); not shown: MBP, N-terminal, cleaved
B7: MCAD p.Tyr67His (enzyme, human, UniProt P11310-1 26-421, looked up)
chain: KANRQREPGLGFSFEFTEQQKEFQATARKFAREEIIPVAAEHDKTGEYPVPLIRRAWELGLMNTHIPENCGGLGLGTFDACLISEELAYGCTGVQTAIEGNSLGQMPIIIAGNDQQKKKYLGRMTEEPLMCAYCVTEPGAGSDVAGIKTKAEKKGDEYIINGQKMWITNGGKANWYFLLARSDPDPKAPANKAFTGFIVEADTPGIQIGRKELNMGQRCSDTRGIVFEDVKVPKENVLIGDGAGFKVAMGAFDKTRPVVAAGAVGLAQRALDEATKYALERKTFGKLLVEHQAISFMLAEMAMKVELARMSYQRAAWEVDSGRRNTYYASIAKAFAGDIANQLATDAVQILGGNGFNTEYPVEKLMRDAKIYQIYEGTSQIQRLIVAREHIDKYKN
notes: medium-chain acyl-CoA dehydrogenase (MCAD), human, ACADM cDNA in pMALc2X with a missense mutation found in newborn screening; number counts on the precursor (initiator methionine +1); also called Y67H; p.Tyr42His; source: E. coli DH5α co-transformed with pGroESL, purified (MBPTrap, SEC, Factor Xa cleavage, SEC); not shown: MBP, N-terminal, cleaved
B8: MCAD p.Arg334Lys (enzyme, human, UniProt P11310-1 26-421, looked up)
chain: KANRQREPGLGFSFEFTEQQKEFQATARKFAREEIIPVAAEYDKTGEYPVPLIRRAWELGLMNTHIPENCGGLGLGTFDACLISEELAYGCTGVQTAIEGNSLGQMPIIIAGNDQQKKKYLGRMTEEPLMCAYCVTEPGAGSDVAGIKTKAEKKGDEYIINGQKMWITNGGKANWYFLLARSDPDPKAPANKAFTGFIVEADTPGIQIGRKELNMGQRCSDTRGIVFEDVKVPKENVLIGDGAGFKVAMGAFDKTRPVVAAGAVGLAQRALDEATKYALERKTFGKLLVEHQAISFMLAEMAMKVELAKMSYQRAAWEVDSGRRNTYYASIAKAFAGDIANQLATDAVQILGGNGFNTEYPVEKLMRDAKIYQIYEGTSQIQRLIVAREHIDKYKN
notes: medium-chain acyl-CoA dehydrogenase (MCAD), human, ACADM cDNA in pMALc2X with a missense mutation found in newborn screening; number counts on the precursor (initiator methionine +1); also called R334K; p.Arg309Lys; source: E. coli DH5α co-transformed with pGroESL, purified (MBPTrap, SEC, Factor Xa cleavage, SEC); not shown: MBP, N-terminal, cleaved
B9: MCAD p.Arg413Ser (enzyme, human, UniProt P11310-1 26-421, looked up)
chain: KANRQREPGLGFSFEFTEQQKEFQATARKFAREEIIPVAAEYDKTGEYPVPLIRRAWELGLMNTHIPENCGGLGLGTFDACLISEELAYGCTGVQTAIEGNSLGQMPIIIAGNDQQKKKYLGRMTEEPLMCAYCVTEPGAGSDVAGIKTKAEKKGDEYIINGQKMWITNGGKANWYFLLARSDPDPKAPANKAFTGFIVEADTPGIQIGRKELNMGQRCSDTRGIVFEDVKVPKENVLIGDGAGFKVAMGAFDKTRPVVAAGAVGLAQRALDEATKYALERKTFGKLLVEHQAISFMLAEMAMKVELARMSYQRAAWEVDSGRRNTYYASIAKAFAGDIANQLATDAVQILGGNGFNTEYPVEKLMRDAKIYQIYEGTSQIQRLIVASEHIDKYKN
notes: medium-chain acyl-CoA dehydrogenase (MCAD), human, ACADM cDNA in pMALc2X with a missense mutation found in newborn screening; number counts on the precursor (initiator methionine +1); also called R413S; p.Arg388Ser; source: E. coli DH5α co-transformed with pGroESL, purified (MBPTrap, SEC, Factor Xa cleavage, SEC); not shown: MBP, N-terminal, cleaved

Molecular target: the molecule itself
Assay: SEC; re-chromatography after Factor Xa cleavage of the MBP tag; HiLoad 16/600 Superdex 200, 20 mM HEPES pH 7.0, 200 mM NaCl, 4 °C; tetrameric fraction pooled

Stoichiometry N, 4:
B1
B2
B3
B4
B5
B6
B7
B8
B9

— publication PMC3981736, “The Domain-Specific and Temperature-Dependent Protein Misfolding Phenotype of Variant Medium-Chain acyl-CoA Dehydrogenase” (PLoS ONE, 2014)
